In patent US9650419B2, “Biocompatible protein, biocompatible protein gel and biocompatible conducting protein gel comprising the protein and method for preparing the same” (Research & Business Foundation SUNGKYUNKWAN UNIVERSITY, priority 2014, dated 2017):

Biological target: T1, trypsin (Bos taurus, UniProt P00760)
T1 construct: gene PRSS1
T1 sequence (P00760 24-246): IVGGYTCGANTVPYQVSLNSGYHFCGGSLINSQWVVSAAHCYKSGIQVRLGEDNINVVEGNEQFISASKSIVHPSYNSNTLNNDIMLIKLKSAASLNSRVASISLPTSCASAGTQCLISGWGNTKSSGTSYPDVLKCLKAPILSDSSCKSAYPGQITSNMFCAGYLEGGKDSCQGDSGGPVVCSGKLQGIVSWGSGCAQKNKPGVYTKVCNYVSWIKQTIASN
Assay: proteolytic susceptibility with trypsin (HPLC, MALDI-TOF)
Type: in vitro ADME
Conditions: 100 μM peptide stock, 200 μM protease stock, TBS buffer pH 7.5, one, seven, thirty days at room temperature
Description: In order to confirm whether β-peptide is degraded by a protease, proteolytic susceptibility of β-VhexS was measured with trypsin, chymotrypsin, and subtilisin which cleave protein nonspecifically. Peptide and pretease stock solution was prepared by desolving 100 μM of beta-VhexS and 200 μM of each pretease in TBS buffer at pH 7.5. 10 μL of stock solution. 40 μL of peptide stock solution and 10 μL of protease stock solution were transferred into micro tube and incubated for one, seven, thirty days at room temperature. The reaction was quenched with adding 100 μL of 1% TFA solution. As a control sample, 40 μL of peptide stock solution without protease was also treated with 1% TFA solution.
Degree of peptide degradation was analyzed with high performance liquid chromatography using C3 column for Agilent analysis. […] The HPLC peaks of both standard sample and enzyme treated peptide sample were compared, and the peaks appeared only for enzyme treated sample were analyzed with MALDI-TOF. The results confirmed that β-peptide was not degraded by enzymes.

Ac-KVK EVF FVK EVF FVK EVY-NH2 (Ac-KVKEVFFVKEVFFVKEVY-NH2; also: beta-amino acids, places not given here) [β-peptide]
degradation of peptide by protease: not degraded
